Measured values as given in patent US20210032287A1.

Target: Syntaxin-1 (GST-tagged) (Homo sapiens (Human)) (UniProt Q16623)
Assay: ELISA-based competition assay; peptide (0.1, 0.5, 1 mM) preincubated with GST-Syntaxin-1 (10 or 5 nM), added to His-Munc18 (100 nM) on a nickel plate; anti-GST detection, A450

Chain of Syntaxin-1 (GST-tagged) (Homo sapiens (Human)) (Q16623 1-261 limits assumed): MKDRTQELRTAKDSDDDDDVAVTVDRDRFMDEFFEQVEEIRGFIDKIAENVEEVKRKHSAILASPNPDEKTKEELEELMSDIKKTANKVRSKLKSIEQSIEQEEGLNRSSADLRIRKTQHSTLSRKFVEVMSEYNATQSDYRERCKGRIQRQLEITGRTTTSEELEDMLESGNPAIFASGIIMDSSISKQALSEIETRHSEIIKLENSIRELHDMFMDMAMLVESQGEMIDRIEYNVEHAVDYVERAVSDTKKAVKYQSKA

| maximum inhibition of Munc18/Syntaxin-1 binding | Substance |
| --- | --- |
| 37% | Ac-His-Ala-Leu-Arg-Phe-Trp-NH2 (peptide) |
| 67% | Ac-HILDMW-NH2 |
